{"source": "patent US20210252150A1", "about": "(VANDERBILT UNIVERSITY, published 2021)", "key": {"[1]": {"molecular_target": "T1, HA of A/South Carolina/1/1918 (H1N1) (influenza A virus (H1N1), UniProt Q9WFX3 18-529)", "T1 sequence (Q9WFX3 18-529)": "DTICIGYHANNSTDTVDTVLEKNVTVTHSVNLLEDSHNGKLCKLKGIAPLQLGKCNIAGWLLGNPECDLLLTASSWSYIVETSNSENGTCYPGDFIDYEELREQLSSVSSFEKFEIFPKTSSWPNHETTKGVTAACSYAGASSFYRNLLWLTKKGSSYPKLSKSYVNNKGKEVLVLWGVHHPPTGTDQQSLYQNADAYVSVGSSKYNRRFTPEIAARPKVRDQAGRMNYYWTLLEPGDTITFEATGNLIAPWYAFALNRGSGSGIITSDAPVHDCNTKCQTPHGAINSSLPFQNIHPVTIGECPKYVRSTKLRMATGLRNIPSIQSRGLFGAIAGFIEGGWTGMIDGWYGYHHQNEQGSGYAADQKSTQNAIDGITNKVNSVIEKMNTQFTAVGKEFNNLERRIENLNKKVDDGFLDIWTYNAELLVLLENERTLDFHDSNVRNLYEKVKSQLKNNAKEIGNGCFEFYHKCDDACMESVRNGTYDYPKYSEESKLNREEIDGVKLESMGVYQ", "test": "Octet (BLI) with HA"}, "[2]": {"molecular_target": "T2, HA of A/Hong Kong/1/1968 (H3N2) (influenza A virus (H3N2), UniProt Q91MA7 17-530)", "test": "Octet (BLI) with HA"}, "[3]": {"molecular_target": "HA of A/Japan/305/1957 (H2N2) (influenza A virus (H2N2), UniProt P03451 16-525)", "test": "Octet (BLI) with HA"}, "[4]": {"molecular_target": "T3, HA of A/turkey/Wisconsin/1/1966 (H9N2) (influenza A virus (H9N2), UniProt P03457 19-526)", "T3 sequence (P03457 19-526 limits assumed)": "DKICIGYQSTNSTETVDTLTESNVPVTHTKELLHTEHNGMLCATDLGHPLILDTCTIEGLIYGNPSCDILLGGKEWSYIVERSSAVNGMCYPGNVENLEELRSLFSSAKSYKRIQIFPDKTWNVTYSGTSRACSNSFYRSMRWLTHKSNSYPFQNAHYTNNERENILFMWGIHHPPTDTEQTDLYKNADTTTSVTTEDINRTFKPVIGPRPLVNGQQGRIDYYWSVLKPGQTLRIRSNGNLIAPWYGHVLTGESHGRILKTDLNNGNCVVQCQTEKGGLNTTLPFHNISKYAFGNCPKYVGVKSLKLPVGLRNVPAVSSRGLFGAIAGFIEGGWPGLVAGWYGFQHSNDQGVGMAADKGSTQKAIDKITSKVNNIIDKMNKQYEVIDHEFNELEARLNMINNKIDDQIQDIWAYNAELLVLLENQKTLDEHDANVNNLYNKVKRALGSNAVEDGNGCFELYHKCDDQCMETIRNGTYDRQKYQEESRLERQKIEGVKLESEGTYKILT", "test": "Octet (BLI) with HA"}, "[5]": {"molecular_target": "T1, HA of A/South Carolina/1/1918 (H1N1)", "test": "ELISA (highest dilution tested 1/50,000)"}, "[6]": {"molecular_target": "T2, HA of A/Hong Kong/1/1968 (H3N2)", "test": "ELISA (highest dilution tested 1/50,000)"}, "[7]": {"molecular_target": "T4, HA of A/Singapore/1/1957 (H2) (influenza A virus (H2), UniProt Q67333 16-525)", "test": "ELISA"}, "[8]": {"molecular_target": "T4, HA of A/Singapore/1/1957 (H2)", "test": "ELISA", "remark": "listed apart in the source"}, "[9]": {"molecular_target": "T3, HA of A/turkey/Wisconsin/1/1966 (H9N2)", "test": "ELISA, recombinant HA"}, "[10]": {"molecular_target": "T4, HA of A/Singapore/1/1957 (H2)", "test": "ELISA, recombinant HA"}, "[11]": {"molecular_target": "T3, HA of A/turkey/Wisconsin/1/1966 (H9N2)", "test": "ELISA, recombinant HA", "remark": "listed apart in the source"}, "[12]": {"molecular_target": "T4, HA of A/Singapore/1/1957 (H2)", "test": "ELISA", "remark": "listed apart in the source"}, "[13]": {"molecular_target": "T4, HA of A/Singapore/1/1957 (H2)", "test": "ELISA", "remark": "listed apart in the source"}, "[14]": {"molecular_target": "T4, HA of A/Singapore/1/1957 (H2)", "test": "ELISA, recombinant HA", "remark": "listed apart in the source"}, "[15]": {"molecular_target": "T1, HA of A/South Carolina/1/1918 (H1N1)", "test": "BLI, Fab on immobilized biotinylated HA"}, "[16]": {"molecular_target": "HA of A/Victoria/3/1975 (H3N2) (influenza A virus (H3N2), UniProt P03435 17-531)", "sequence (P03435 17-531 limits assumed)": "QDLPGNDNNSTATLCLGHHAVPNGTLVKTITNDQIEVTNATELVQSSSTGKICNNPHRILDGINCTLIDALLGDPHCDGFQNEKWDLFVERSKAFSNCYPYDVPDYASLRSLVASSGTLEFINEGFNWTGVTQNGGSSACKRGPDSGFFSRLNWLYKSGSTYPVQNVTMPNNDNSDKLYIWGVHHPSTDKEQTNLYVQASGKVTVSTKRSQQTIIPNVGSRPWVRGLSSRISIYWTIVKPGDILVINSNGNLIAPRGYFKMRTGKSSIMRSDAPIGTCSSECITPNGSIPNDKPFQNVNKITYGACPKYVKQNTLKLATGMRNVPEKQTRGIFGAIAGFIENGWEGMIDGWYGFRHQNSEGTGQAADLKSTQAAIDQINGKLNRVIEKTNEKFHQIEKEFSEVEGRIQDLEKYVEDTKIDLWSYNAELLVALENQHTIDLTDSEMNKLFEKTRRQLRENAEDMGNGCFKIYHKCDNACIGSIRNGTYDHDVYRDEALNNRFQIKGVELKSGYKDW", "test": "BLI, Fab on immobilized biotinylated HA"}, "[17]": {"molecular_target": "T1, HA of A/South Carolina/1/1918 (H1N1)", "test": "BLI, Fab on immobilized biotinylated HA", "remark": "listed apart in the source"}, "[18]": {"molecular_target": "T1, HA of A/South Carolina/1/1918 (H1N1)", "test": "BLI, 1:1 global fit; Table S2 of the text prints 46 for this strain"}, "[19]": {"molecular_target": "T2, HA of A/Hong Kong/1/1968 (H3N2)", "test": "ELISA, recombinant HA"}, "[20]": {"molecular_target": "T2, HA of A/Hong Kong/1/1968 (H3N2)", "test": "ELISA, recombinant HA", "remark": "listed apart in the source"}, "[21]": {"molecular_target": "T2, HA of A/Hong Kong/1/1968 (H3N2)", "test": "BLI, Fab on immobilized biotinylated HA"}, "[22]": {"molecular_target": "HA of A/Perth/16/2009 (H3N2) (influenza A virus (H3N2), UniProt O11283 17-530)", "test": "BLI, Fab on immobilized biotinylated HA"}, "[23]": {"molecular_target": "T2, HA of A/Hong Kong/1/1968 (H3N2)", "test": "BLI, Fab on immobilized biotinylated HA", "remark": "listed apart in the source"}}, "note": "Read-outs that look alike come from different tables or passages of the source.", "data": [{"binder": "H5.31 (antibody, V domains shown) VH: EVQLVQSGGGLVQPGGSLRLSCEASRFTSSSYWITWVRQAPGKGLEWVANIKQDGSEKYFVDSVKGRFTISRDNASNSLYLQMSSLRAEDTAVYYCARGFLERLLLGRQGAYYYGMDVWGQGTTVTVSS VL: DIQMTQSPSSLSASVGDRVTMTCRASQSISSSLNWYQQKPGKAPKLLIYAASNLQSGVPSRFSGSGSGTDFTLTISSLQPEDFATYYCQQSYTMPPELTFGGGTKVQIK", "values": [{"measurement": "Kd", "setting": "[1]", "value": 0.17, "unit": "nM"}, {"measurement": "Kd", "setting": "[2]", "value": 5.4, "unit": "nM"}, {"measurement": "Kd", "setting": "[3]", "value": 0.13, "unit": "nM"}, {"measurement": "Kd", "setting": "[4]", "value": 17, "unit": "nM"}, {"measurement": "EC50", "setting": "[5]", "value": 0.031, "unit": "µg/mL"}, {"measurement": "EC50", "setting": "[6]", "value": 0.024, "unit": "µg/mL"}]}, {"binder": "H5.28 (antibody, V domains shown) VH: EVQLVESGGGLVQPGGSLRLSCAASGFTFSTYWMTWVRQAPGKGLEWVANINQDGGEKYFVDSVKGRFTISRDNAKNSLFLQMNTLRAEDTAVYYCARGFLERLLLGRQGAYYYGMDVWGQGTTVTVSS VL: DIQMTQSPSSLSASVGDRVSMTCRASQIISSSLNWYQQKPGKAPKLLIYAASNLQSGVPSRFSGSGSGTDFTLTISSLQPEDFATYYCQQSYSTPPELTFGGGTKVEIK", "values": [{"measurement": "Kd", "setting": "[1]", "value": 0.11, "unit": "nM"}, {"measurement": "Kd", "setting": "[2]", "value": 75, "unit": "nM"}, {"measurement": "Kd", "setting": "[3]", "value": 0.19, "unit": "nM"}, {"measurement": "Kd", "setting": "[4]", "value": 65, "unit": "nM"}, {"measurement": "EC50", "setting": "[5]", "value": 0.081, "unit": "µg/mL"}, {"measurement": "EC50", "setting": "[6]", "value": 16, "unit": "µg/mL"}]}, {"binder": "FluA-20 (hybridoma-produced IgG) (antibody, V domains shown) VH: QVQLQESGPGLVKPSETLSLTCSVSGVSVTSDIYYWTWIRQPPGKGLEWIGYIFYNGDTNYNPSLKSRVTMSIDTSKNEFSLRLTSVTAADTAVYFCARGTEDLGYCSSGSCPNHWGQGTLVTVSS VL: DIQMTQSPSSLSASIGDRVTITCRPSQNIRSFLNWFQHKPGKAPKLLIYAASNLQSGVPSRFSGSGSGTEFTLTIRSLQPEDFATYYCQQSYNTPPTFGQGTKVEIK", "values": [{"measurement": "EC50", "setting": "[7]", "value": 0.18, "unit": "µg/mL"}, {"measurement": "EC50", "setting": "[8]", "value": 0.007, "unit": "µg/mL"}, {"measurement": "EC50", "setting": "[9]", "value": 0.063, "unit": "µg/mL"}, {"measurement": "EC50", "setting": "[10]", "value": 0.009, "unit": "µg/mL"}, {"measurement": "EC50", "setting": "[11]", "value": 0.022, "unit": "µg/mL"}]}, {"binder": "rFluA-20 (recombinant FluA-20 IgG) (antibody, V domains shown) VH: QVQLQESGPGLVKPSETLSLTCSVSGVSVTSDIYYWTWIRQPPGKGLEWIGYIFYNGDTNYNPSLKSRVTMSIDTSKNEFSLRLTSVTAADTAVYFCARGTEDLGYCSSGSCPNHWGQGTLVTVSS VL: DIQMTQSPSSLSASIGDRVTITCRPSQNIRSFLNWFQHKPGKAPKLLIYAASNLQSGVPSRFSGSGSGTEFTLTIRSLQPEDFATYYCQQSYNTPPTFGQGTKVEIK", "values": [{"measurement": "EC50", "setting": "[12]", "value": 0.011, "unit": "µg/mL"}, {"measurement": "EC50", "setting": "[13]", "value": 0.011, "unit": "µg/mL"}, {"measurement": "EC50", "setting": "[14]", "value": 0.178, "unit": "µg/mL"}, {"measurement": "EC50", "setting": "[9]", "value": 0.193, "unit": "µg/mL"}, {"measurement": "EC50", "setting": "[11]", "value": 0.016, "unit": "µg/mL"}]}, {"binder": "FluA-20 Fab (Fab, V domains shown) VH: QVQLQESGPGLVKPSETLSLTCSVSGVSVTSDIYYWTWIRQPPGKGLEWIGYIFYNGDTNYNPSLKSRVTMSIDTSKNEFSLRLTSVTAADTAVYFCARGTEDLGYCSSGSCPNHWGQGTLVTVSS VL: DIQMTQSPSSLSASIGDRVTITCRPSQNIRSFLNWFQHKPGKAPKLLIYAASNLQSGVPSRFSGSGSGTEFTLTIRSLQPEDFATYYCQQSYNTPPTFGQGTKVEIK", "values": [{"measurement": "Kd", "setting": "[15]", "value": 46, "unit": "nM"}, {"measurement": "Kd", "setting": "[16]", "value": 3460, "unit": "nM"}, {"measurement": "Kd", "setting": "[17]", "value": 46, "unit": "nM"}, {"measurement": "Kd", "setting": "[18]", "value": "~48", "unit": "nM"}]}, {"binder": "UCA (antibody, V domains shown) VH: QVQLQESGPGLVKPSETLSLTCTVSGGSVSSGSYYWSWIRQPPGKGLEWIGYIYYSGSTNYNPSLKSRVTISVDTSKNQFSLKLSSVTAADTAVYYCARGTEDLGYCSGGSCPNHWGQGTLVTV VL: not shown", "values": [{"measurement": "EC50", "setting": "[14]", "value": 0.07, "unit": "µg/mL"}, {"measurement": "EC50", "setting": "[19]", "value": 0.054, "unit": "µg/mL"}, {"measurement": "EC50", "setting": "[9]", "value": 0.359, "unit": "µg/mL"}, {"measurement": "EC50", "setting": "[10]", "value": 0.028, "unit": "µg/mL"}, {"measurement": "EC50", "setting": "[20]", "value": 0.021, "unit": "µg/mL"}]}, {"binder": "FluA-20 UCA Fab (unmutated common ancestor of FluA-20) (Fab, V domains shown) VH: QVQLQESGPGLVKPSETLSLTCTVSGGSVSSGSYYWSWIRQPPGKGLEWIGYIYYSGSTNYNPSLKSRVTISVDTSKNQFSLKLSSVTAADTAVYYCARGTEDLGYCSGGSCPNHWGQGTLVTV VL: not shown", "values": [{"measurement": "Kd", "setting": "[15]", "value": 937, "unit": "nM"}, {"measurement": "Kd", "setting": "[21]", "value": 486, "unit": "nM"}, {"measurement": "binding result", "setting": "[16]", "value": "no binding (tested: 2 µM)"}, {"measurement": "binding result", "setting": "[22]", "value": "no binding (tested: 2 µM)"}, {"measurement": "Kd", "setting": "[17]", "value": 937, "unit": "nM"}, {"measurement": "Kd", "setting": "[23]", "value": 486, "unit": "nM"}]}]}
